Experimental findings from paper PMC7749421, “Functional expression of human prostaglandin E2 receptor 4 (EP4) in E. coli and characterization of the binding property of EP4 with Gα proteins” (Biochemistry and Biophysics Reports, 2020) are described below.

For experiment [1], the target named is T1, human prostaglandin E2 receptor 4 (EP4) (Homo sapiens, UniProt P35408).
T1 construct: gene PTGER4
As to the kind of experiment: biochemical.

Experiment [2] has as its target Gαi3 (alpha subunit of Gi protein) (UniProt P08754). The experiment is described as follows: ELISA; Gα (10 μg/ml) immobilised in a high-binding 96-well plate, blocked with 5% skimmed milk; 5-1000 nM P9-EP4 in sarkosyl or in APG added; detected with anti-P9 antibody, HRP anti-mouse IgG and TMB; 25 °C. For orientation: In an ELISA, binding on a coated surface is turned into a signal by an enzyme label.

The target of experiment [3] is Gαi2 (alpha subunit of Gi protein) (UniProt P04899). The description is as above.
Experiment [4] concerns the target Gαi1 (alpha subunit of Gi protein) (UniProt P63096). The experiment is described as above.
Experiment [5] concerns the target Gαs1 (alpha subunit of Gs protein) (UniProt P63092). The description is as above.

P9-EP4 (human prostaglandin E2 receptor 4, amino acids 1-354, fused to the C-terminus of the P9 envelope protein of phage phi6, with a C-terminal His6 tag), sequence (P35408 1-354 limits assumed): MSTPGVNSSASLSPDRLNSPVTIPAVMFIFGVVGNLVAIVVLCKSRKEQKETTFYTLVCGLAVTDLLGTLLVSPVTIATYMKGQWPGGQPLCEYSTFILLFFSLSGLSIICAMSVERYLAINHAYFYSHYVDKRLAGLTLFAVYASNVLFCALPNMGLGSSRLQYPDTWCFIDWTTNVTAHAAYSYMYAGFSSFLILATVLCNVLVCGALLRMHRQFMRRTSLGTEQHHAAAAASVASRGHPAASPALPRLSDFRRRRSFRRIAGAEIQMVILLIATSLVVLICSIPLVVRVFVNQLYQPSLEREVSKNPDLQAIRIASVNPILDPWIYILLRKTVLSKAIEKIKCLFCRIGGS
Gαs1 (alpha subunit of Gs protein), sequence (P63092 whole entry): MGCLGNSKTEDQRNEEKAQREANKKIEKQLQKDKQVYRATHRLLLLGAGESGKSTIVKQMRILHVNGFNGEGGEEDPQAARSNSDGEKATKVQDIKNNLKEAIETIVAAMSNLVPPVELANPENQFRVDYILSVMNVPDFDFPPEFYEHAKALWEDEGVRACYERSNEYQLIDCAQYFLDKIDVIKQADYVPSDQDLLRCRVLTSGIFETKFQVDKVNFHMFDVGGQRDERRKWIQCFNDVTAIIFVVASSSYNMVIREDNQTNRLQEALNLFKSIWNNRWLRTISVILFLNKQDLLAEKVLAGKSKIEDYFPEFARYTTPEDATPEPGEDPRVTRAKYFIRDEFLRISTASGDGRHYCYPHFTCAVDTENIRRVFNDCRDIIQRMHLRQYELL
T1 sequence (P35408 1-354): as the sequence (P35408 1-354 limits assumed) above
Gαi1 (alpha subunit of Gi protein), sequence (P63096 whole entry): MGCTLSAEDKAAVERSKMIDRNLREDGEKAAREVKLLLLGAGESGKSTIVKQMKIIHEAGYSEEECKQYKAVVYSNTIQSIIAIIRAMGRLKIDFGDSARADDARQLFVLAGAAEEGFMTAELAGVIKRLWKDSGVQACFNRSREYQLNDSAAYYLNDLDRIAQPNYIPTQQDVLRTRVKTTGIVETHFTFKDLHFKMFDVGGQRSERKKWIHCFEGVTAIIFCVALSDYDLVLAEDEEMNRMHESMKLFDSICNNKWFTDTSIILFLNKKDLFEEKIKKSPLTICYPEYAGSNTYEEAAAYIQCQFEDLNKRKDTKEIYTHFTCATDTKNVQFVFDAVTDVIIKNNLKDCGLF
Gαi3 (alpha subunit of Gi protein), sequence (P08754 whole entry): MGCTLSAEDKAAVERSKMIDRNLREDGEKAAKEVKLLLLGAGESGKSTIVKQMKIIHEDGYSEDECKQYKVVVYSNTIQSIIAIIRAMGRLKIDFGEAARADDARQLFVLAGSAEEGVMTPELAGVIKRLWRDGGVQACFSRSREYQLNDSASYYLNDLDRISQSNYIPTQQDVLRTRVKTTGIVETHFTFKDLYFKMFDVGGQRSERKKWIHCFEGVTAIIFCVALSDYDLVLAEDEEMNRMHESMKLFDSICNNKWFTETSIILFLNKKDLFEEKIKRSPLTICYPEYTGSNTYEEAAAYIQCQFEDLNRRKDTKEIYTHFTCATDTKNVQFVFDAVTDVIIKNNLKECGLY
Gαi2 (alpha subunit of Gi protein), sequence (P04899 whole entry): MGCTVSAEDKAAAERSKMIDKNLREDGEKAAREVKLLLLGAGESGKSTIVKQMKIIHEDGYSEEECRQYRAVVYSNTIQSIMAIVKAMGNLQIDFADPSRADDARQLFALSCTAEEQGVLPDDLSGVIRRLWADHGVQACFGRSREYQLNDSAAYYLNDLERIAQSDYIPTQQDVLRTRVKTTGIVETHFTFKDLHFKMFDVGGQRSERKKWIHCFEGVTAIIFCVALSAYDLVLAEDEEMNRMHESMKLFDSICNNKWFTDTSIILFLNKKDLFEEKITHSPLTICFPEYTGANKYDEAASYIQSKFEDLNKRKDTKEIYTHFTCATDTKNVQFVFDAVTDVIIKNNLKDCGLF

`CC(C(=O)Nc1cc(C#N)ccc1CCCC(=O)O)c1ccc(F)c2ccccc12` (centres unmarked) [ONO-AE3-208] registered a dissociation constant (Kd) in experiment [1] of 680 ± 150 nM.

For “P9-EP4 (human prostaglandin E2 receptor 4, amino acids 1-354, fused to the C-terminus of the P9 envelope protein of phage phi6, with a C-terminal His6 tag) (from UniProt P35408 1-354)”, the Kd came to 214 nM in experiment [2], 175 nM in experiment [3], 50 nM in experiment [4] and 88 nM in experiment [5].

In general, Kd refers to the free concentration of one partner at which half of the binding sites on the other are occupied at equilibrium, for simple one-to-one binding. A higher Kd goes with lower affinity.
